Test results: the supplement of paper PMC10065799, “High-throughput profiling of sequence recognition by tyrosine kinases and SH2 domains using bacterial peptide display” (eLife, 2023)

Legend:
[1] = molecular target: FGFR3 (UniProt P22607); test: phosphorylation enrichment, bacterial display (enrichment ratio); higher = better substrate or ligand; peptides without Tyr show the background
[2] = molecular target: Fes (UniProt P07332); test: as above
[3] = molecular target: EPHB1 (UniProt P54762); test: as above
Sequence of EPHB1 (P54762 whole entry, looked up): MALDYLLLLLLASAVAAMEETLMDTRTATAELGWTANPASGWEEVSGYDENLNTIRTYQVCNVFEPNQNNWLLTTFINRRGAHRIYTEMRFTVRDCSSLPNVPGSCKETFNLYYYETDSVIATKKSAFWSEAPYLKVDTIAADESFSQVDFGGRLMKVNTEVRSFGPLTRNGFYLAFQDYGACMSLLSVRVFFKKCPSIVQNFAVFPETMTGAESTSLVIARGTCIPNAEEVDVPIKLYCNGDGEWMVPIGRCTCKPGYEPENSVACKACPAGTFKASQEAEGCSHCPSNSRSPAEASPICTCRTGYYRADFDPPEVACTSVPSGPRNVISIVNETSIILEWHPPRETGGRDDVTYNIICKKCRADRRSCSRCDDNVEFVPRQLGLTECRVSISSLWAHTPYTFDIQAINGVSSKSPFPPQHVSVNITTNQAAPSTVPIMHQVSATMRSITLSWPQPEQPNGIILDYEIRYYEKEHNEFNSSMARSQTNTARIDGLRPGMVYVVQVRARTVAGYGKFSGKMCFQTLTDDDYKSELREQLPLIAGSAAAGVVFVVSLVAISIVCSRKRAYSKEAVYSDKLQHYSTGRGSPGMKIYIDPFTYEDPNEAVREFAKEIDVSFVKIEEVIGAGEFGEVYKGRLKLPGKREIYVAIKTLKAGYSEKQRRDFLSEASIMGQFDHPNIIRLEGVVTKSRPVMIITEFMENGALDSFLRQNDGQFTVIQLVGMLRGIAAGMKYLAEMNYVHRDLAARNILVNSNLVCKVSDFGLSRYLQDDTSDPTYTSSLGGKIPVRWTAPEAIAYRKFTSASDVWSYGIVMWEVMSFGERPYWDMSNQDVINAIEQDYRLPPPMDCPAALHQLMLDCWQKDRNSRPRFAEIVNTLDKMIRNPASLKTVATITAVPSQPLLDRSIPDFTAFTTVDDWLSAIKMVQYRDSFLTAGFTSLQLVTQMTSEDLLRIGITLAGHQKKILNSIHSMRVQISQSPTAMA

[4] = molecular target: EPHB2 (UniProt P29323); test: as above
Sequence of EPHB2 (P29323 whole entry, looked up): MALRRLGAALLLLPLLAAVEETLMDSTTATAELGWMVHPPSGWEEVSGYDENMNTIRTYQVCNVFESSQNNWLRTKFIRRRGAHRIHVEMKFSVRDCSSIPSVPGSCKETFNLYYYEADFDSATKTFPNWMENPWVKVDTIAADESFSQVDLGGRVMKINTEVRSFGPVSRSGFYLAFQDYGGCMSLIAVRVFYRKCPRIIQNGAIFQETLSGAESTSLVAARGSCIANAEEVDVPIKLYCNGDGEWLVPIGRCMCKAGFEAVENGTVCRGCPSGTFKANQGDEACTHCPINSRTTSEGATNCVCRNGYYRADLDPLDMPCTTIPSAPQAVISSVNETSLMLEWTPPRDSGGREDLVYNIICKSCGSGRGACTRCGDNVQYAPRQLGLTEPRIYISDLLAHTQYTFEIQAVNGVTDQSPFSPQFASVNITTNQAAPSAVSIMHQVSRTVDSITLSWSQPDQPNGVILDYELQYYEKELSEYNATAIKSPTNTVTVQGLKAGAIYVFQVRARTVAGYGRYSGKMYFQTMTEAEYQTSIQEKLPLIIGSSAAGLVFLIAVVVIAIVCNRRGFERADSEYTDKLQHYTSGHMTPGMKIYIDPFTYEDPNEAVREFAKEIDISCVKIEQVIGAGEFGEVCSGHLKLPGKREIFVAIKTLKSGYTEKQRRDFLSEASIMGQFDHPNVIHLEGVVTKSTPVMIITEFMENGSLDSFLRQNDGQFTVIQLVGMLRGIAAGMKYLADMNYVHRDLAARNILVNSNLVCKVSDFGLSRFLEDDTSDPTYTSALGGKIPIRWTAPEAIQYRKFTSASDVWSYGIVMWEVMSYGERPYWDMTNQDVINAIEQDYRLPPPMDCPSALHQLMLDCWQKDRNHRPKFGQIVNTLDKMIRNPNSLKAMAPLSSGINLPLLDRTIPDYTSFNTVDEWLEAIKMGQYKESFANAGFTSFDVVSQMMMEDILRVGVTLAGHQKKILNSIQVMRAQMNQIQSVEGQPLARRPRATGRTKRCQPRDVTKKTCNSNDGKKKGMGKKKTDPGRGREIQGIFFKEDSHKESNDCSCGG

[5] = test system: c-Abl (mouse); test: as above
[6] = molecular target: Fyn (UniProt P06241); test: as above
Sequence of Fyn (P06241 whole entry, looked up): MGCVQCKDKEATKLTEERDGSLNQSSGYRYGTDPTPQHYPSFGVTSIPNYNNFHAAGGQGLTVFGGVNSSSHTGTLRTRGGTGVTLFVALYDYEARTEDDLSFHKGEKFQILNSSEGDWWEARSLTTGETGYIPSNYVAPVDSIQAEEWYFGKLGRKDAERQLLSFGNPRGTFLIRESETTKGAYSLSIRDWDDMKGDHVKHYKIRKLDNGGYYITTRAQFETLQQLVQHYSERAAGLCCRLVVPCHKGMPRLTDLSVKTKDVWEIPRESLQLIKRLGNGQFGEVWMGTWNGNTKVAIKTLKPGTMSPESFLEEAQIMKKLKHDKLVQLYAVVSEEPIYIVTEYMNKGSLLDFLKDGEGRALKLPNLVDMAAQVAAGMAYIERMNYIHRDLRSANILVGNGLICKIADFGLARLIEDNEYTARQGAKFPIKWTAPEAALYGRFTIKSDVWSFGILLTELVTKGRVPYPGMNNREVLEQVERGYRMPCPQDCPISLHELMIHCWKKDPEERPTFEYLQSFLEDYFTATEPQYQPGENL

[7] = test system: AncSZ; test: as above
[8] = test system: c-Src; test: as above
[9] = molecular target: Hck (UniProt P08631); test: as above
Sequence of Hck (P08631 whole entry, looked up): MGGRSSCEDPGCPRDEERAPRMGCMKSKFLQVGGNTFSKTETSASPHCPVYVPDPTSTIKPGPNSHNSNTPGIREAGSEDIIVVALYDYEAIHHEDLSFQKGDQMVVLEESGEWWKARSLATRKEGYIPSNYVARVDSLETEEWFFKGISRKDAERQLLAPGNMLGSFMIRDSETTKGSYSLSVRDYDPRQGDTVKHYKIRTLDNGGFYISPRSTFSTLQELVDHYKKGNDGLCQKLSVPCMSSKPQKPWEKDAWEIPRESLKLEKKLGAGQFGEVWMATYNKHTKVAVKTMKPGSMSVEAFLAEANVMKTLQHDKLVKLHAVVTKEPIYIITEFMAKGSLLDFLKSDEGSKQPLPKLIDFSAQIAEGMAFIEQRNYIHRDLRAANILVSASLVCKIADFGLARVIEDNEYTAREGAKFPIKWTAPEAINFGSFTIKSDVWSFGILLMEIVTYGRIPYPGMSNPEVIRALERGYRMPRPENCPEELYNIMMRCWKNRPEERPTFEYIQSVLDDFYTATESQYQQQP

[10] = test system: Fer (mouse); test: as above
[11] = molecular target: Jak2 (UniProt O60674); test: as above
[12] = molecular target: MERTK (UniProt Q12866); test: as above
[13] = molecular target: FGFR1 (UniProt P11362); test: as above
Sequence of FGFR1 (P11362 whole entry, looked up): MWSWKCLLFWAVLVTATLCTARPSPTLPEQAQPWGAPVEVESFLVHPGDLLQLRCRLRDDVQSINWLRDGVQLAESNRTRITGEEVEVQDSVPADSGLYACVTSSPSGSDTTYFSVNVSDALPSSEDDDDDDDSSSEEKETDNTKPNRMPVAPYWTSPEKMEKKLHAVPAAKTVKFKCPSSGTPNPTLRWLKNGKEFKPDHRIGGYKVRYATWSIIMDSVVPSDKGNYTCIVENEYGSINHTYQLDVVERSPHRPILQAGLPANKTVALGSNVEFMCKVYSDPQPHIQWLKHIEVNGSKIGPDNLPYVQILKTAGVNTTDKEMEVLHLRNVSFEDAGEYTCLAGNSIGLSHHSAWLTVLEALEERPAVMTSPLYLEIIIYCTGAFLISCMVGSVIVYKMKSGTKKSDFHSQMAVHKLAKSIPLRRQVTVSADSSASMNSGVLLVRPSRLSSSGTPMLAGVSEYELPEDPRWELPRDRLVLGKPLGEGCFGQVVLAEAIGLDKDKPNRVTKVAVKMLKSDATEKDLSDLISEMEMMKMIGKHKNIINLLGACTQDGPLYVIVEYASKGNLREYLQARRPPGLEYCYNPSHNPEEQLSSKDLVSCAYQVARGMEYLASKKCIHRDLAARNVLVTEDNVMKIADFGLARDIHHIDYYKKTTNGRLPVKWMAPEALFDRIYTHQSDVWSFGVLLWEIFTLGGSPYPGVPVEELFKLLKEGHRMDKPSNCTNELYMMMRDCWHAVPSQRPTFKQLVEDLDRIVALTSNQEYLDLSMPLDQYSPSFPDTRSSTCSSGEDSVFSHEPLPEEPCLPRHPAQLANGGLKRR

[14] = molecular target: Grb2 SH2 (UniProt P62993); test: SH2 binding enrichment of the phosphorylated peptide, bacterial display (enrichment ratio); higher = better substrate or ligand; peptides without Tyr show the background
Sequence of Grb2 SH2 (P62993 whole entry, looked up): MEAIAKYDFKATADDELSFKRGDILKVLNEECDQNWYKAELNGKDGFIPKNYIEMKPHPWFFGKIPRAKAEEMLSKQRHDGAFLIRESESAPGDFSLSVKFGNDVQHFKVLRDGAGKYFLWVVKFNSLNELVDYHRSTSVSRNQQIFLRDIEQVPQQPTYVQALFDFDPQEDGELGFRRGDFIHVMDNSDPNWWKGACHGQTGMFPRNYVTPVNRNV

[15] = molecular target: c-Src SH2; test: as above
[16] = molecular target: SHP2-C SH2; test: as above
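For SH2 binding enrichment of the phosphorylated peptide, bacterial display in this document: peptide library displayed on the E. coli surface as eCPX fusions, selected cells deep-sequenced, score is each peptide's frequency after selection divided by its frequency in the input.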
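For phosphorylation enrichment, bacterial display in this document: 11-residue human phosphosite peptides and single-mutation variants displayed on the E. coli surface, counted by deep sequencing, each peptide's frequency after selection divided by its frequency in the unselected input library; frequency after pTyr selection over input frequency; kinase dosed for 20-30% of maximal phosphorylation in three min.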

Sequence of Fes (P07332 whole entry, looked up): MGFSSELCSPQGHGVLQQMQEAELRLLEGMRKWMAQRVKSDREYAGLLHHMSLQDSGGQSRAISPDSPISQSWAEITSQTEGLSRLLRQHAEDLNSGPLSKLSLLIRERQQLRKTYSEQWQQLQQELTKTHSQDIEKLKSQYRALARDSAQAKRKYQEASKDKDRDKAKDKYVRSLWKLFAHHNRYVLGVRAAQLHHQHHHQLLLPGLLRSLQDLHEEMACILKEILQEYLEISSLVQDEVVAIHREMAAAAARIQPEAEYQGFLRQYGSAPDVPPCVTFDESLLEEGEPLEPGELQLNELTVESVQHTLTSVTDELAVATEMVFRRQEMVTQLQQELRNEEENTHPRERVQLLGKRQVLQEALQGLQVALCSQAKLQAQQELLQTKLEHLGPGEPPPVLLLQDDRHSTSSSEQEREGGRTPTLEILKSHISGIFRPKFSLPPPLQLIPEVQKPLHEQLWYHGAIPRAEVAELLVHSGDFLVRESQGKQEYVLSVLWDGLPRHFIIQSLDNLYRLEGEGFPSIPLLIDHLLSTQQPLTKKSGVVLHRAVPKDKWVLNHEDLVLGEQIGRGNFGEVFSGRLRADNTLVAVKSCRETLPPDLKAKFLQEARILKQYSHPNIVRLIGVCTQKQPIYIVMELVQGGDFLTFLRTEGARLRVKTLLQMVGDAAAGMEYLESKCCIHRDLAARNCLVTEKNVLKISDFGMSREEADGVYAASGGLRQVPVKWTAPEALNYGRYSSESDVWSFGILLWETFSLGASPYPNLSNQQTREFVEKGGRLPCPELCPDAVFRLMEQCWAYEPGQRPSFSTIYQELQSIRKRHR

Row | Sequence | phosphorylation enrichment [1] | phosphorylation enrichment [2] | phosphorylation enrichment [3] | phosphorylation enrichment [4] | phosphorylation enrichment [5] | phosphorylation enrichment [6] | phosphorylation enrichment [7] | phosphorylation enrichment [8] | phosphorylation enrichment [9] | phosphorylation enrichment [10] | phosphorylation enrichment [11] | phosphorylation enrichment [12] | phosphorylation enrichment [13] | SH2 binding enrichment [14] | SH2 binding enrichment [15] | SH2 binding enrichment [16]
1 | GGYNNYGYGND [HNRNPH3_Y159] | 0.688 | 0.849 | 1.92 | 3.79 | 1.24 | 0.805 | 0.802 | 0.456 | 0.556 | 0.672 | 0.808 | 0.565 | 0.66 | 1.22 | 0.934 | 0.571
2 | GVYSRHFTTYD [CLCA1_Y661_Y661H] | 0.508 | 0.657 | 0.495 | 0.473 | 0.359 | 0.648 | 0.823 | 0.768 | 1.31 | 0.642 | 0.507 | 0.569 | 0.389 | 0.713 | 0.477 | 0.714
3 | WQQQSYLDYGI [CTNNB1_Y30_S33Y] | 0.827 | 1.03 | 0.808 | 1.07 | 0.711 | 0.604 | 1.11 | 0.743 | 0.615 | 0.453 | 0.842 | 0.426 | 0.91 | 0.818 | 0.511 | 0.648
4 | FTNRNYDLDYD [MYC_Y12] | 0.591 | 1.12 | 0.666 | 0.637 | 0.713 | 0.607 | 1.13 | 0.586 | 0.594 | 0.58 | 1.3 | 0.58 | 0.69 | 0.799 | 3.05 | 0.517
5 | RDMNACIRPSP [MMAA_Y207_Y207C] | 1.03 | 1.29 | 1.06 | 1.07 | 0.565 | 0.773 | 1.12 | 0.375 | 0.798 | 0.571 | 0.581 | 0.62 | 0.934 | 0.969 | 0.58 | 0.444
6 | ECKLLYSRKEG [PTPN11_Y263] | 0.554 | 0.754 | 0.436 | 0.513 | 0.77 | 0.446 | 0.855 | 0.425 | 0.564 | 0.465 | 0.647 | 0.483 | 0.487 | 1.02 | 0.616 | 1.09
7 | HNLDYYKETTN [FGFR3_Y648_K650E] | 2.12 | 1.06 | 0.633 | 0.857 | 0.788 | 0.597 | 1.25 | 0.47 | 0.734 | 0.766 | 1.01 | 0.553 | 2.08 | 1.24 | 0.732 | 0.874
8 | LQKPMYEVQWK [KIT_Y553] | 1.49 | 1.32 | 2.63 | 0.912 | 1.36 | 0.81 | 1.29 | 0.617 | 0.788 | 0.83 | 1.42 | 1.28 | 0.851 | 0.771 | 0.522 | 0.633
9 | GFSDPYVKAFL [SYT3_Y470_S474F] | 0.729 | 1 | 0.595 | 0.577 | 0.772 | 0.481 | 0.693 | 0.497 | 0.466 | 0.565 | 0.898 | 0.472 | 0.535 | 0.897 | 0.51 | 0.686
10 | TEQDPYNNIVH [MMUT_Y364_R369H] | 0.599 | 0.965 | 0.475 | 0.679 | 0.851 | 0.572 | 1.05 | 0.515 | 0.586 | 0.544 | 0.788 | 0.512 | 0.501 | 0.913 | 2.11 | 0.769
11 | CTTIHYNFMGN [TP53_Y234_C238G_YF] | 0.523 | 0.876 | 0.565 | 0.487 | 0.699 | 0.464 | 0.926 | 0.402 | 0.478 | 0.472 | 0.73 | 0.532 | 0.542 | 0.96 | 0.772 | 0.788
12 | KASIMYPSSNC [CXCL11_Y52_N55S] | 0.467 | 0.653 | 0.411 | 0.48 | 0.497 | 0.434 | 0.629 | 0.397 | 0.429 | 0.452 | 0.522 | 0.395 | 0.455 | 0.943 | 0.565 | 0.7
13 | GYDHSYYFIAT [ESD_Y262] | 9.89 | 1.22 | 1.95 | 1.24 | 0.759 | 1.41 | 2.05 | 1.57 | 2.02 | 1.1 | 6.79 | 4.8 | 11.1 | 0.702 | 0.871 | 0.727
14 | TLERHYEELQA [SPTBN2_Y834] | 0.677 | 1.06 | 0.648 | 0.522 | 0.836 | 0.541 | 1.04 | 0.505 | 0.591 | 1.7 | 0.947 | 0.578 | 0.472 | 0.586 | 18.6 | 0.52
15 | QVMDGYPMPIG [MMP14_Y353] | 0.629 | 0.964 | 0.673 | 0.511 | 1.03 | 0.564 | 0.861 | 0.517 | 0.601 | 0.53 | 0.987 | 0.906 | 0.529 | 0.675 | 0.572 | 0.423
16 | ALEHKYWALGQ [MAP1A_Y1555_Q1553H] | 0.582 | 0.966 | 0.546 | 0.539 | 0.652 | 0.801 | 0.859 | 1.39 | 0.621 | 0.492 | 0.709 | 0.596 | 0.601 | 0.817 | 14.8 | 0.814
17 | RESYKYFPSSL [CXXC1_Y218] | 1.09 | 0.841 | 0.651 | 0.475 | 0.77 | 0.843 | 1.18 | 0.861 | 0.685 | 0.82 | 1.15 | 0.69 | 0.51 | 1.06 | 0.688 | 0.697
18 | SLIDMYSKVLD [OPA1_Y268_E270K] | 0.637 | 1.02 | 0.462 | 0.57 | 0.482 | 0.421 | 0.953 | 0.478 | 0.497 | 0.501 | 0.814 | 0.481 | 0.479 | 0.777 | 1.6 | 0.737
19 | HSPLRYTSILT [OR51B6_Y130_R125H] | 0.849 | 1.4 | 0.782 | 0.602 | 0.547 | 0.823 | 0.915 | 0.574 | 0.683 | 0.892 | 0.807 | 0.634 | 1.19 | 1.21 | 5.39 | 9.46
20 | FTDGQYWIRGR [ACSF3_Y466_K462T] | 0.555 | 0.992 | 0.509 | 0.463 | 0.611 | 0.422 | 1.02 | 0.588 | 1.03 | 0.408 | 0.818 | 0.521 | 0.425 | 0.648 | 0.358 | 0.489
21 | LDFPEYDGVDR [CASQ1_Y43] | 1.37 | 2.01 | 0.633 | 0.865 | 1.48 | 0.75 | 2.6 | 1.5 | 1.11 | 0.719 | 2 | 0.556 | 0.59 | 1.57 | 0.625 | 0.667
22 | FRQNGYIPGSN [PCDHGA1_Y895_V894G_YF] | 0.437 | 0.548 | 0.396 | 0.359 | 0.499 | 0.403 | 0.5 | 0.435 | 0.392 | 0.377 | 0.544 | 0.393 | 0.416 | 0.807 | 0.481 | 0.607
23 | QTWKTYVRHQQ [SFI1_Y164_Q167H] | 2.21 | 1.29 | 0.548 | 0.509 | 1.36 | 0.476 | 0.901 | 0.769 | 0.486 | 0.465 | 1.3 | 0.49 | 0.535 | 1.38 | 0.784 | 0.946
24 | SYKNKYGMVAQ [APOB_Y276] | 0.385 | 0.674 | 0.333 | 0.333 | 0.562 | 0.367 | 0.555 | 0.569 | 0.442 | 0.398 | 0.483 | 0.335 | 0.385 | 1.01 | 0.613 | 0.786
25 | SLTRLYVGENA [NLRP3_Y861] | 0.517 | 0.703 | 0.357 | 0.521 | 0.496 | 0.424 | 0.725 | 0.357 | 0.554 | 0.444 | 0.494 | 0.34 | 0.485 | 0.806 | 0.438 | 0.452
26 | SRGHQYQELPR [KCNH2_Y1009_R1007H] | 0.464 | 0.672 | 0.466 | 0.602 | 0.589 | 0.487 | 0.527 | 0.35 | 1.06 | 0.413 | 0.721 | 0.576 | 0.609 | 1.04 | 5.11 | 0.807
27 | ARGMEYLASKK [FGFR1_Y613] | 0.409 | 0.566 | 0.356 | 0.367 | 0.506 | 0.364 | 0.61 | 0.403 | 0.367 | 0.324 | 0.662 | 0.354 | 0.285 | 0.529 | 0.456 | 0.513
28 | VAFVYYKSIGP [ADGRL4_Y302] | 0.872 | 1.6 | 0.678 | 0.653 | 0.907 | 0.432 | 1.41 | 0.465 | 0.524 | 0.658 | 1.3 | 0.442 | 0.656 | 0.838 | 0.574 | 0.75
29 | RAILLYEYVGK [NATD1_Y45_V42I] | 5.74 | 7.22 | 33.9 | 46.9 | 2.4 | 11.2 | 3.29 | 11.1 | 15.5 | 26.3 | 2.34 | 19.1 | 4.68 | 1.56 | 1.55 | 1.25
